From PMC9870903, “Structural mechanism of BRD4-NUT and p300 bipartite interaction in propagating aberrant gene transcription in chromatin in NUT carcinoma” (Nature Communications, 2023)
Read-outs that look alike come from different tables or passages of the source. Each block holds one molecule with its values, some of them ahead of it.

How the values were obtained:
[1] = target: p300 TAZ2 domain (residues 1723–1812) (UniProt Q09472); assay: NMR titration; 1H-15N HSQC of 15N-TAZ2 (50 μM); NUT fragment or peptide titrated from 7.8 μM to 1000 μM; 200 mM phosphate buffer pH 6.3; overlays at TAZ2/NUT molar ratio 1:3; single-site binding model
[2] = target: p300 TAZ2 domain (residues 1723–1812) (UniProt Q09472); assay: as above; remark: listed apart in the source
[3] = target: the molecule itself; assay: SEC; Superdex 200 Increase 10/300 GL in PBS, 0.3 ml/min; samples 0.8 mM; MBP-TAZ2/His-F1c in 1:1 mix ratio; calibrated with protein standards

Molecule: GMYPDPGLLSYINELC [F1c peptide (residues 403–418)]
- Kd [2]: 115 µM

B1: His-F1c (residues 346–592) (domain or fragment, UniProt Q86Y26 346-592, looked up)
chain: RRQRKAQRPPAPEAPKEIPPEAVKEYVDIMEWLVGTHLATGESDGKQEEEGQQQEEEGMYPDPGLLSYINELCSQKVFVSKVEAVIHPQFLADLLSPEKQRDPLALIEELEQEEGLTLAQLVQKRLMALEEEEDAEAPPSFSGAQLDSSPSGSVEDEDGDGRLRPSPGLQGAGGAACLGKVSSSGKRAREVHGGQEQALDSPRGMHRDGNTLPSPSSWDLQPELAAPQGTPGPLGVERRGSGKVINQ
notes: also called free His-F1c; source: purified; not shown: His, N-terminal, kept
- stoichiometry N [3]: 5

Continued, values first:

- Kd [1]: 36 µM
Molecule: NUT fragment of residues 419–470 (as added in NMR) (from UniProt Q86Y26 419-470) (domain or fragment)

- Kd [1]: 32 µM
Molecule: NUT fragment of residues 377–418 (as added in NMR) (from UniProt Q86Y26 377-418) (domain or fragment)

- Kd [2]: 958 µM
Molecule: FLADLLSPEKQRDPLALIEE [F1c peptide (residues 435–454)]
